The record followed here is US20100129346A1 (G2 INFLAMMATION, published 2010).

Positions count from the first letter of the chain named. No end group written: not given here. *: point of attachment. Biotin = O=C1N[C@H]2[C@H](CS[C@H]2CCCCC(=O)*)N1

Test [1] addresses T1, human C5aR (human, UniProt P21730 1-350).
T1 construct: On human neutrophils, on hC5aR-transfected L1.2 cells or on neutrophils of hC5aR knock-in mice; also called hC5aR; C5a receptor
T1 chain: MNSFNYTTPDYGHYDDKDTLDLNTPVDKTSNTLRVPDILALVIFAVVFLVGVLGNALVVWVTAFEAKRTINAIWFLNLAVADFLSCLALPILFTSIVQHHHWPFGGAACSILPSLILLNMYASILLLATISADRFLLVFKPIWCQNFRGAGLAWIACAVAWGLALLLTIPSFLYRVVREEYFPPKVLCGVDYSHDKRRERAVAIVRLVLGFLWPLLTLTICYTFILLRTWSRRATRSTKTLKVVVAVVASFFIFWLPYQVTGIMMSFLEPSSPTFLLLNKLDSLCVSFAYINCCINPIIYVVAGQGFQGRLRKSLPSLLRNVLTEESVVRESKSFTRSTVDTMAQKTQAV
The experiment in a line: competition with 125I-C5a (0.4 nM) for binding to human neutrophils.

In test [2] the target is T1, human C5aR. The experiment in a line: displacement of 125I-C5a from hC5aR on hC5aR-transfected L1.2 cells.
In test [3] the target is T2, Biotinylated Human C5aR Peptide (2nd loop), peptide 23 (human, N-terminal biotin).
T2 construct: immobilised on a streptavidin sensor chip for BIACore; also called Biotinylated-Peptide 23; Biot-peptide
T2 peptide: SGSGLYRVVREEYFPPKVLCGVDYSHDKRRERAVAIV
Put plainly: SPR (BIACore), biotinylated peptide 23 on SA chip; experiment 1.

The target of test [4] is T2, Biotinylated Human C5aR Peptide (2nd …). The experiment in a line: SPR (BIACore 2000), biotinylated peptide 23 on SA chip, mAb as analyte. (SPR reads the build-up and loss of mass on a sensor chip optically.)
The target is the same in test [5]. The experiment in a line: SPR (BIACore), biotinylated peptide 23 on SA chip; experiment 3 (25 nM-0.78 nM, 5 min dissociation).
Test [6] shares this target. Put plainly: SPR (BIACore), biotinylated peptide 23 on SA chip; experiment 2 (100 nM-0.78 nM, 20 min dissociation). As for the experimental part:
(§1) Additional BIACore analyses were performed to compare binding affinities of antibodies 7F3 and 3C5 to peptide 23 under varying conditions. The conditions for these additional BIAcore experiments were as described above under “Experimental Details” with the following modifications: [0295] Experiment 2: Antibody concentrations included in kinetic analysis—100 nM-0.78 nM; 20 min dissociation. [0296] Experiment 3: Antibody concentrations included in kinetic analysis—7F3: 25 nM-0.78 nM,; 3C5: 6.25nM-0.78nM; 5 min dissociation. [0297] Experiment 4: Antibody concentrations included in kinetic analysis—7F3: 25 nM-1.56 nM,; 3C5: 6.25 nM-0.4 nM; 1 min association, 3 min dissociation.

The target is the same in test [7]. Put plainly: SPR (BIACore), biotinylated peptide 23 on SA chip; experiment 4 (25 nM-1.56 nM, 1 min association, 3 min dissociation).
Test [8] deals with T3, 12-mer peptide VREEYFPPKVLC of the human C5aR second extracellular loop (human).
T3 construct: Parent peptide of the alanine scan; each mutant has one residue replaced by alanine
T3 peptide: Biotin-GSGSVREEYFPPKVLC
Put plainly: peptide ELISA, biotinylated peptide on streptavidin-coated plates [b]. The procedure:
Streptavidin-coated microtiter plates (NUNC) were coated with 10 μg/ml of peptide/well in a volume of 200 μl, and incubated at 4° C. overnight. Plates were washed three times with ELISA wash buffer (0.05% Tween 20 in PBS). MAbs were added at 2.5 μg/ml, and plates were incubated for 3 hrs at room temperature. HRP-conjugated rabbit anti-mouse IgG antibody diluted 1:1000 in ELISA wash buffer was used for detection. Plates were developed using TMB (3,3′,5,5′ tetramethyl benzidine, SIGMA) and read at […].
(In general: ELISA stands for enzyme-linked immunosorbent assay.)

The target of test [9] is T1, human C5aR. Put plainly: competitive 125I-C5a ligand binding to hC5aR on human neutrophils; blocked ligand human C5a; 3 experiments; the table's column has no unit, nM is that of the axis Log Conc (nM). As for the experimental part:
(§2) Human neutrophils were washed and re-suspended in binding buffer (50 mM HEPES, pH7.5, 1 mM CaCl2, 5 mM MgCl2, and 0.5% BSA) at 1×10⁷/ml. For each binding reaction (in a final volume of 120 μl), 40 μl cell suspension (4×10⁵ cells) with an appropriate amount of anti-hC5aR mAb, isotype matched control mAb or unlabelled human C5a (SIGMA) was incubated at room temperature for 15 min. ¹²⁵I-labelled human C5a (Perkin Elmer) was added at a final concentration of 0.4 nM and the reactions were incubated at room temperature for 60 min. Cells were then collected and washed 3 times with binding buffer containing 150 mM NaCl. Cells were then transferred to Opti plates (Perkin Elmer) with MicroScint 20 scintillation fluid and radioactivity counted on TopCount (Packard). Each sample was assayed in triplicate.
(§3) Further competitive ligand binding studies were conducted to measure ¹²⁵I-C5a displacement from hC5aR on hC5aR-transfected L1.2 cells with 7F3 or 3C5.

Test [10] deals with T2, Biotinylated Human C5aR Peptide (2nd …). The experiment in a line: SPR (BIACore), biotinylated peptide 23 on SA chip; reference 7F3.
Test [11] deals with T1, human C5aR. Put plainly: competition with 125I-C5a (0.4 nM) for binding to human neutrophils; human neutrophils. As for the experimental part:
as §2, §3

Test [12] addresses T1, human C5aR. Put plainly: displacement of 125I-C5a from hC5aR on hC5aR-transfected L1.2 cells; hC5aR-transfected L1.2 cells. For orientation: Loss of bound radioactivity is the signal in a displacement assay; it reports binding, not function.
Test [13] deals with T2, Biotinylated Human C5aR Peptide (2nd …). Put plainly: SPR (BIACore), biotinylated peptide 23 on SA chip; experiment 3 (6.25 nM-0.78 nM, 5 min dissociation). The procedure:
as §1

For test [14] the target is unchanged. Put plainly: SPR (BIACore), biotinylated peptide 23 on SA chip; experiment 4 (6.25 nM-0.4 nM, 1 min association, 3 min dissociation). As for the experimental part: as §1

B1: MAb 7F3 (antibody, V domains shown)
VH: QVQLQQSGPELVKPGASVKISCKASGYAFSNSWMNWVKQRPGKGLEWIGRIYPGDGDTKYNGKFKGKATLTADKSSSTAYMQLSSLTSEDSAVYFCARFLLISTVTAVDYWGQGTTLTVSS
VL: DVVMTQSPLSLPVSLGNQASISCRSSQSLVHSNGNTYLHWYLQKPGQSPKLLIYKVSNRFSGVPDRFSGSGSGTDFSLKISRVEAEDLGVYFCSQSTLVPLTFGAGTKLELK
As a reminder, the IC50 is the midpoint of a concentration-inhibition curve. For orientation: EC50 means the concentration needed to bring the measured effect to its halfway point. Low values mean a more potent agent, high ones a less potent agent. A word on the Kd: it is the constant that tells how readily two partners part at equilibrium. The low end stands for tighter binding, the high end for weaker binding. By koff is commonly meant a measure of how fast the partners let go of each other. Broadly, the kon is a measure of how fast the partners come together. A low value points to slower complex formation. In the test with human C5aR [1], B1 registered an IC50 of 0.503 nM. In addition, in the test with human C5aR [2], the response was half-maximal at 0.48 nM (EC50). In addition, the Ka in test [3] came out at 5.4e+08 M⁻¹; in test [4] it was 1.4e+09 M⁻¹; in test [5] it was 7.19e+08 M⁻¹; in test [6] it was 8.1e+08 M⁻¹; in test [7] it was 4.79e+08 M⁻¹. The Kd is 1.8 nM in test [3]; 0.7 nM in test [4]; 1.39 nM in test [5]; 1.2 nM in test [6]; 2.09 nM in test [7]. Besides, the koff in test [3] turned out to be 0.00038 s⁻¹; in test [4] it was 0.00045 s⁻¹; in [5] it was 0.000462 s⁻¹; in test [6], 0.00035 s⁻¹; in test [7] it was 0.000598 s⁻¹. The kon was 210000 M⁻¹ s⁻¹ in test [3]; 640000 M⁻¹ s⁻¹ in test [4]; 332000 M⁻¹ s⁻¹ in test [5]; 290000 M⁻¹ s⁻¹ in [6]; 286000 M⁻¹ s⁻¹ in [7].

B2: MAb 7H3 (antibody, V domains shown)
VH: EVKLEESGGGLVQPGGSMKLSCVASGFTFSDAWMDWVRQSPEKGLEWVAGIRNRANNHATYYVASVKGRFTVSRDDSKSSVYLQMNSLRAEDAGIYYCTRGDGYFFDYWGQGTTLTVSS
VL: DVVLTQTPLSLSVSLGDQASISCRSGQSLVHSNGNTYLHWYLQKPGQSSKLLIYKVSNRLSGVPDRFSGSGSGTDFTLKISRVEAEDLGVYFCSQTTHVPPTFGGGTKLEIK
notes: Mouse monoclonal antibody from a hybridoma (ECACC 06081802); also called 7H3-N9
For B2, in test [4], the Ka was found to be 5.97e+07 M⁻¹, the Kd came out at 16.7 nM, the koff stood at 0.00995 s⁻¹ and the kon came to 595000 M⁻¹ s⁻¹. In [8], the binding result is on record as “binds”. In the test with human C5aR [9], this molecule showed an IC50 of 0.275 nM.

B3: MAb 3C5 (antibody, V domains shown)
VH: DVQLQESGPGLVKPSQSLSLTCSVTGYSITSGNYWNWIRQFPGKKLEWMGHISYDGNNKYNPSLKNRISITRDTSKNQFFLRLNSVTAEDTAAYYCALFYFDYASFTYWGQGTLVTVSA
VL: B1 VL with S7T, N17D, Q43R, S77T, L98H, L101P
For B3, the “fold improved affinity over 7F3” value in test [10] is about 1.5 fold. In addition, the Ka in test [3] amounted to 1.3e+09 M⁻¹; in [4], 2.1e+09 M⁻¹; in test [6], 2.2e+09 M⁻¹; in [13], 9.6e+08 M⁻¹; in test [14] it was 7.16e+08 M⁻¹. Besides, the dissociation constant Kd in test [3] amounted to 0.76 nM; in test [4], 0.48 nM; in test [6], 0.45 nM; in test [13], 1.04 nM; in [14], 1.4 nM. Also, the koff in test [3] turned out to be 0.00052 s⁻¹; in test [4] it was 0.0016 s⁻¹; in test [6], 0.0007 s⁻¹; in [13], 0.00111 s⁻¹; in test [14] it was 0.00144 s⁻¹. In addition, the kon stood at 680000 M⁻¹ s⁻¹ in test [3]; 3.3e+06 M⁻¹ s⁻¹ in [4]; 1.5e+06 M⁻¹ s⁻¹ in [6]; 1.06e+06 M⁻¹ s⁻¹ in [13]; 1.03e+06 M⁻¹ s⁻¹ in test [14]. The IC50 in the test with human C5aR [11] amounted to 0.171 nM. The molecule further gave an EC50 with human C5aR [12] of 0.021 nM.

B4: MAb 8G7 (antibody, V domains shown)
VH: DIQLQESGPGLVKPSQSLSLTCSVTGYSITSGHYWNWIRQLPGNKMEWMGHISNDGSNRYNPSLKNRISITRDTSKNQFFLKLNSVTTEDTATYYCALFYFAYASFAYWGQGTLVTVSA
VL: DVVMTQTPLSLPVSLGDQASISCRSSQSLLHSNGNTYLHWYLQKPGQSPKLLIYKVSTRFSGVPDRFSGSGSGADFTLQISRVEAEDLGVYLCSQSTHVPPTFGAGTKLVLT
notes: Mouse monoclonal antibody from a hybridoma (ECACC 06081803); also called 8G7-M6
As to B4, in [4], the Ka was determined as 6.3e+08 M⁻¹, binding was characterised by a dissociation constant (Kd) of 1.6 nM, the koff came out at 0.0059 s⁻¹ and the kon stood at 3.7e+06 M⁻¹ s⁻¹. Besides, the binding result in test [8] is listed as “binds”. Further, in the test with human C5aR [9], the IC50 was 0.214 nM.
